According to the supplement of paper PMC6757056:
± gives the standard deviation of the averaged measurements.

B1: library; a variant is named by its letters at N, in order (parent)
chain: GCUGUCACCGGUGCUUGGUACGUUAUAUUCAGCCGGUCUGAUGAGUCUNNNNNNAGACGAAACAGC

Legend:
[1] = variants of: B1; assay: FACS-Seq fitted mean relative fluorescence mCherry/BFP without ligand (log10 relative fluorescence); HEK293T overexpressing SLC46A1; higher = higher reporter protein expression; conditions: without (6R,S)-folinic acid; ligand present: no
In short: (§1)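 Genomic DNA from 6 mCherry/BFP sort bins was PCR-amplified, barcoded and sequenced on MiSeq. The sorted cells were enriched HEK293T libraries, lentivirally transduced with a ribozyme-switch mCherry reporter and an EF1α-BFP marker, incubated with or without ligand for 48 h. Fluorescence derives from a normal fit to the bin counts. The fit was on log10(mCherry/BFP), and means were scaled to five spiked-in control ribozymes.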

[2] = variants of: B1; assay: normalized RNA/DNA level without ligand (relative to sTRSVctl = 100) (log10 (% of sTRSVctl)); HEK293T overexpressing SLC46A1; higher = less ribozyme self-cleavage, higher mRNA level; conditions: without (6R,S)-folinic acid; ligand present: no
In short: (§2)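 HEK293T cells were transfected with library plasmids carrying ribozyme switches linked to an mCherry reporter, or an eGFP reporter in some ligand experiments, at 4 µg per well of a 6-well plate, with any ligand added 1 h beforehand. After 72 h, total RNA was extracted with EDTA, reverse-transcribed, amplified, barcoded and sequenced. RNA level was defined as RNA reads over DNA reads, normalized to a spiked-in non-cleaving sequence or to the top-ranked sequences. That value was multiplied by 100 and converted to log10, the top set was 25 sequences, and only sequences with ≥100 DNA reads were retained.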

[3] = variants of: B1; assay: FACS-Seq fitted mean relative fluorescence mCherry/BFP with ligand (log10 relative fluorescence); HEK293T overexpressing SLC46A1; ligand concentration (+) FACS-Seq: 6 mM; higher = higher reporter protein expression; conditions: with (6R,S)-folinic acid; ligand present: yes
In short: as §1

[4] = variants of: B1; assay: normalized RNA/DNA level with ligand (relative to sTRSVctl = 100) (log10 (% of sTRSVctl)); HEK293T overexpressing SLC46A1; ligand concentration (+) RNA-Seq: 6 mM; higher = less ribozyme self-cleavage, higher mRNA level; conditions: with (6R,S)-folinic acid; ligand present: yes
In short: as §2

## GCUGUCACCGGUGCUUGGUACGUUAUAUUCAGCCGGUCUGAUGAGUCUGCUCUGAGACGAAACAGC [GCUCUG]
[1]
  FACS-Seq fitted mean (log10): 0.433 ± 0.072
[2]
  normalized RNA/DNA level without ligand (log10): 1.99 ± 0.024
[3]
  FACS-Seq fitted mean (log10): 0.646 ± 0.038
[4]
  normalized RNA/DNA level with ligand (log10): 2.03 ± 0.037

## GCUGUCACCGGUGCUUGGUACGUUAUAUUCAGCCGGUCUGAUGAGUCUCCUGAUAGACGAAACAGC [CCUGAU]
[1]
  FACS-Seq fitted mean (log10): -0.195 ± 0.23
[2]
  normalized RNA/DNA level without ligand (log10): 2.02 ± 0.024
[3]
  FACS-Seq fitted mean (log10): -0.196 ± 0.058
[4]
  normalized RNA/DNA level with ligand (log10): 2.05 ± 0.028

## GCUGUCACCGGUGCUUGGUACGUUAUAUUCAGCCGGUCUGAUGAGUCUGCUCGUAGACGAAACAGC [GCUCGU]
[1]
  FACS-Seq fitted mean (log10): 0.5943 ± 0.0012
[2]
  normalized RNA/DNA level without ligand (log10): 2.0305 ± 0.0014
[3]
  FACS-Seq fitted mean (log10): 0.851 ± 0.091
[4]
  normalized RNA/DNA level with ligand (log10): 2.02 ± 0.037

## GCUGUCACCGGUGCUUGGUACGUUAUAUUCAGCCGGUCUGAUGAGUCUGCUACAAGACGAAACAGC [GCUACA]
[1]
  FACS-Seq fitted mean (log10): -0.313 ± 0.09
[2]
  normalized RNA/DNA level without ligand (log10): 2.017 ± 0.018
[3]
  FACS-Seq fitted mean (log10): -0.102 ± 0.14
[4]
  normalized RNA/DNA level with ligand (log10): 2.03 ± 0.05

## GCUGUCACCGGUGCUUGGUACGUUAUAUUCAGCCGGUCUGAUGAGUCUGCUGAUAGACGAAACAGC [GCUGAU]
[1]
  FACS-Seq fitted mean (log10): 0.277 ± 0.044
[2]
  normalized RNA/DNA level without ligand (log10): 2.036 ± 0.0025
[3]
  FACS-Seq fitted mean (log10): 0.23 ± 0.0065
[4]
  normalized RNA/DNA level with ligand (log10): 2.014 ± 0.019

## GCUGUCACCGGUGCUUGGUACGUUAUAUUCAGCCGGUCUGAUGAGUCUGCUGAAAGACGAAACAGC [GCUGAA]
[1]
  FACS-Seq fitted mean (log10): -0.084 ± 0.057
[2]
  normalized RNA/DNA level without ligand (log10): 2.021 ± 0.02
[3]
  FACS-Seq fitted mean (log10): -0.25 ± 0.14
[4]
  normalized RNA/DNA level with ligand (log10): 2.03 ± 0.028

## GCUGUCACCGGUGCUUGGUACGUUAUAUUCAGCCGGUCUGAUGAGUCUGCUAUAAGACGAAACAGC [GCUAUA]
[1]
  FACS-Seq fitted mean (log10): 0.337 ± 0.086
[2]
  normalized RNA/DNA level without ligand (log10): 1.985 ± 0.014
[3]
  FACS-Seq fitted mean (log10): 0.51 ± 0.19
[4]
  normalized RNA/DNA level with ligand (log10): 2.019 ± 0.0034

## GCUGUCACCGGUGCUUGGUACGUUAUAUUCAGCCGGUCUGAUGAGUCUCCUCCAAGACGAAACAGC [CCUCCA]
[1]
  FACS-Seq fitted mean (log10): 0.578 ± 0.057
[2]
  normalized RNA/DNA level without ligand (log10): 2.02 ± 0.031
[3]
  FACS-Seq fitted mean (log10): 0.469 ± 0.016
[4]
  normalized RNA/DNA level with ligand (log10): 2.04 ± 0.027

## GCUGUCACCGGUGCUUGGUACGUUAUAUUCAGCCGGUCUGAUGAGUCUACUCAAAGACGAAACAGC [ACUCAA]
[1]
  FACS-Seq fitted mean (log10): 0.314 ± 0.088
[2]
  normalized RNA/DNA level without ligand (log10): 1.973 ± 0.015
[3]
  FACS-Seq fitted mean (log10): 0.365 ± 0.012
[4]
  normalized RNA/DNA level with ligand (log10): 2 ± 0.028

## GCUGUCACCGGUGCUUGGUACGUUAUAUUCAGCCGGUCUGAUGAGUCUACUCAUAGACGAAACAGC [ACUCAU]
[1]
  FACS-Seq fitted mean (log10): 0.258 ± 0.022
[2]
  normalized RNA/DNA level without ligand (log10): 2.013 ± 0.0051
[3]
  FACS-Seq fitted mean (log10): 0.187 ± 0.11
[4]
  normalized RNA/DNA level with ligand (log10): 2.04 ± 0.029

## GCUGUCACCGGUGCUUGGUACGUUAUAUUCAGCCGGUCUGAUGAGUCUCCUAGCAGACGAAACAGC [CCUAGC]
[1]
  FACS-Seq fitted mean (log10): 0.339 ± 0.022
[2]
  normalized RNA/DNA level without ligand (log10): 2.075 ± 0.011
[3]
  FACS-Seq fitted mean (log10): 0.3 ± 0.46
[4]
  normalized RNA/DNA level with ligand (log10): 2.053 ± 0.006

## GCUGUCACCGGUGCUUGGUACGUUAUAUUCAGCCGGUCUGAUGAGUCUCCUACAAGACGAAACAGC [CCUACA]
[1]
  FACS-Seq fitted mean (log10): -0.221 ± 0.03
[2]
  normalized RNA/DNA level without ligand (log10): 2.02 ± 0.044
[3]
  FACS-Seq fitted mean (log10): -0.392 ± 0.29
[4]
  normalized RNA/DNA level with ligand (log10): 2.04 ± 0.043

## GCUGUCACCGGUGCUUGGUACGUUAUAUUCAGCCGGUCUGAUGAGUCUGCUCAAAGACGAAACAGC [GCUCAA]
[1]
  FACS-Seq fitted mean (log10): 0.44 ± 0.027
[2]
  normalized RNA/DNA level without ligand (log10): 1.978 ± 0.0021
[3]
  FACS-Seq fitted mean (log10): 0.374 ± 0.1
[4]
  normalized RNA/DNA level with ligand (log10): 1.985 ± 0.013

## GCUGUCACCGGUGCUUGGUACGUUAUAUUCAGCCGGUCUGAUGAGUCUGCUCAUAGACGAAACAGC [GCUCAU]
[1]
  FACS-Seq fitted mean (log10): -0.192 ± 0.045
[2]
  normalized RNA/DNA level without ligand (log10): 2.02 ± 0.029
[3]
  FACS-Seq fitted mean (log10): -0.09 ± 0.67
[4]
  normalized RNA/DNA level with ligand (log10): 2.009 ± 0.013

## GCUGUCACCGGUGCUUGGUACGUUAUAUUCAGCCGGUCUGAUGAGUCUGCUCACAGACGAAACAGC [GCUCAC]
[1]
  FACS-Seq fitted mean (log10): 0.502 ± 0.15
[2]
  normalized RNA/DNA level without ligand (log10): 2.046 ± 0.0078
[3]
  FACS-Seq fitted mean (log10): 0.372 ± 0.23
[4]
  normalized RNA/DNA level with ligand (log10): 2.032 ± 0.01

## GCUGUCACCGGUGCUUGGUACGUUAUAUUCAGCCGGUCUGAUGAGUCUGCUAAUAGACGAAACAGC [GCUAAU]
[1]
  FACS-Seq fitted mean (log10): 0.513 ± 0.029
[2]
  normalized RNA/DNA level without ligand (log10): 1.986 ± 0.0026
[3]
  FACS-Seq fitted mean (log10): 0.516 ± 0.027
[4]
  normalized RNA/DNA level with ligand (log10): 2.02 ± 0.022

## GCUGUCACCGGUGCUUGGUACGUUAUAUUCAGCCGGUCUGAUGAGUCUACUGAGAGACGAAACAGC [ACUGAG]
[1]
  FACS-Seq fitted mean (log10): 0.198 ± 0.044
[2]
  normalized RNA/DNA level without ligand (log10): 1.7978 ± 0.0006
[3]
  FACS-Seq fitted mean (log10): 0.446 ± 0.082
[4]
  normalized RNA/DNA level with ligand (log10): 2 ± 0.023

## GCUGUCACCGGUGCUUGGUACGUUAUAUUCAGCCGGUCUGAUGAGUCUACUGAAAGACGAAACAGC [ACUGAA]
[1]
  FACS-Seq fitted mean (log10): 0.265 ± 0.035
[2]
  normalized RNA/DNA level without ligand (log10): 1.953 ± 0.0034
[3]
  FACS-Seq fitted mean (log10): 0.375 ± 0.18
[4]
  normalized RNA/DNA level with ligand (log10): 1.981 ± 0.0063

## GCUGUCACCGGUGCUUGGUACGUUAUAUUCAGCCGGUCUGAUGAGUCUGCUGCCAGACGAAACAGC [GCUGCC]
[1]
  FACS-Seq fitted mean (log10): 0.382 ± 0.084
[2]
  normalized RNA/DNA level without ligand (log10): 2.08 ± 0.0024
[3]
  FACS-Seq fitted mean (log10): 0.484 ± 0.32
[4]
  normalized RNA/DNA level with ligand (log10): 2.042 ± 0.0033

## GCUGUCACCGGUGCUUGGUACGUUAUAUUCAGCCGGUCUGAUGAGUCUUCUCGUAGACGAAACAGC [UCUCGU]
[1]
  FACS-Seq fitted mean (log10): 0.148 ± 0.028
[2]
  normalized RNA/DNA level without ligand (log10): 1.9916 ± 0.0016
[3]
  FACS-Seq fitted mean (log10): -0.0695 ± 0.1
[4]
  normalized RNA/DNA level with ligand (log10): 2.012 ± 0.013

## GCUGUCACCGGUGCUUGGUACGUUAUAUUCAGCCGGUCUGAUGAGUCUUCUCGAAGACGAAACAGC [UCUCGA]
[1]
  FACS-Seq fitted mean (log10): 0.597 ± 0.079
[2]
  normalized RNA/DNA level without ligand (log10): 2.071 ± 0.012
[3]
  FACS-Seq fitted mean (log10): 0.413 ± 0.029
[4]
  normalized RNA/DNA level with ligand (log10): 2.03 ± 0.021
